According to US20070196354A1, “Method of treating diabetes by inhibiting degradation of at least one of crebl1, atf6, and hnf-4 alpha by htra” (priority 2003, published 2007):
Substitutions are numbered along the chain they refer to. In names and notes the source's numbering stands.

Key:
[1] = molecular target: T1, HNF-4α (Homo sapiens, UniProt P41235); assay: Intracellular protease assay, co-expression with HNF-4α in HEK293T cells; type: cell-based; details: 48 hours
T1 construct: expressed in transfected cells; host or cells: HEK293T
T1 sequence (P41235 10-474): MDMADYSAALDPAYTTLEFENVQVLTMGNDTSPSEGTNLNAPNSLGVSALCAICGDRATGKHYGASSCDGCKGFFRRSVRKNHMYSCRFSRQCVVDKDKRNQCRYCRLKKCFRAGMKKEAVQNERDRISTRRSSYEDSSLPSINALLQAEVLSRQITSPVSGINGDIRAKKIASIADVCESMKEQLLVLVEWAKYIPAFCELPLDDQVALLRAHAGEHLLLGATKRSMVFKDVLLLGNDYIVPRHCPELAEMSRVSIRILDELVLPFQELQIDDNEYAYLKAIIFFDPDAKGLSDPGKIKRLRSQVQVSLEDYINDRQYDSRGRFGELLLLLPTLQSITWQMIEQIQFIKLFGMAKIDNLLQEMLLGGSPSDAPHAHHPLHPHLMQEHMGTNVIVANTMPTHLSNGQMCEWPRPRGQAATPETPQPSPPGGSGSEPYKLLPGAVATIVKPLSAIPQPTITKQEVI
Method: (§1) HEK293T cells were cultured to 1.5×10^5 cells/6 cm Dish. Next day, the expression plasmid of HNF-4α was transfected into HEK293T cells together with the expression plasmid of various types of HtrA2 using FuGene 6 (Roche). Each of the expression plasmid of various HtrA2 at 1 μg/Dish was added in combination with HNF-4α expression plasmid at 1 μg/Dish. Forty eight hours later, the cells in which the various types of HtrA2 were co-expressed with HNF-4α were added with 200 μl of lysis buffer B and an equivalent volume of 2×SDS sample buffer (containing 0.1% β-mercaptoethanol), and then subjected to sonication followed by boiling to use as a test sample.
Expression of HNF-4α and the degradation of HNF-4α were detected by western blotting using 10 μl of the test sample thus obtained. Anti-FLAG antibody (Sigma) was used as a primary antibody for detection, and horseradish peroxidase (HRP) labeled anti-mouse IgG antibody (Cell Signaling) was used as a secondary antibody. Detection was carried out using ECL Western Blotting Detection System.

[2] = molecular target: T2, ATF6 (Homo sapiens, UniProt P18850); assay: Intracellular protease assay, co-expression with ATF6 in HEK293T cells; type: cell-based; details: 48 hours
T2 construct: expressed in transfected cells; host or cells: HEK293T
T2 sequence (P18850 1-670): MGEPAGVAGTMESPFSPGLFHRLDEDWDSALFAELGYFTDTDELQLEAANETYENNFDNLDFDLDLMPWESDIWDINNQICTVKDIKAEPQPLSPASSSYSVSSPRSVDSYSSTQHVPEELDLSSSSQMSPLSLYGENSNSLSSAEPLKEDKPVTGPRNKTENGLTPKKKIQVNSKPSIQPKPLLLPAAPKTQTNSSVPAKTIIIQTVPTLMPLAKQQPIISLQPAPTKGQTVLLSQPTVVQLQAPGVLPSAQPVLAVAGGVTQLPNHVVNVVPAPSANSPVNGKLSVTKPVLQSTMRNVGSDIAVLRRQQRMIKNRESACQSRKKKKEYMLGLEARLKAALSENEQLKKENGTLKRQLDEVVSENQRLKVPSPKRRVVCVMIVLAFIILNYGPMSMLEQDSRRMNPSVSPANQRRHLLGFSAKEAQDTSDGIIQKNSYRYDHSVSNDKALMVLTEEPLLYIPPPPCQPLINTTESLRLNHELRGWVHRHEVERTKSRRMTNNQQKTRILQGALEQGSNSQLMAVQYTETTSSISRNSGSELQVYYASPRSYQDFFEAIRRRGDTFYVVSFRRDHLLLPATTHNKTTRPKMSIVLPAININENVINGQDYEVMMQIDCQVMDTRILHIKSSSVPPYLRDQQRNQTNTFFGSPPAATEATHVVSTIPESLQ
Method: as §1, with “to 1.5×10^5 cells/10 cm Dish.” for “to 1.5×10^5 cells/6 cm Dish.”, “plasmid of CREBL1 or ATF6 was transfected” for “plasmid of HNF-4α was transfected”, “combination with CREBL1 expression plasmid or ATF6 expression plasmid” for “combination with HNF-4α expression plasmid”, “co-expressed with CREBL1 or ATF6 were added” for “co-expressed with HNF-4α were added”
(§2) Expression of CREBL1 and ATF6 and the degradation of these proteins were detected by western blotting using 10 μl of the test sample thus obtained. Anti-c-Myc (9E10) antibody was used as a primary antibody for detection, and horseradish peroxidase (HRP) conjugated anti-mouse IgG antibody (Cell Signaling) was used as a secondary antibody. Detection was carried out using ECL Western Blotting Detection System.

[3] = molecular target: T3, CREBL1 (Homo sapiens, UniProt Q99941); assay: Intracellular protease assay, co-expression with CREBL1 in HEK293T cells; type: cell-based; details: 48 hours
T3 construct: expressed in transfected cells; host or cells: HEK293T
T3 sequence (Q99941 1-703): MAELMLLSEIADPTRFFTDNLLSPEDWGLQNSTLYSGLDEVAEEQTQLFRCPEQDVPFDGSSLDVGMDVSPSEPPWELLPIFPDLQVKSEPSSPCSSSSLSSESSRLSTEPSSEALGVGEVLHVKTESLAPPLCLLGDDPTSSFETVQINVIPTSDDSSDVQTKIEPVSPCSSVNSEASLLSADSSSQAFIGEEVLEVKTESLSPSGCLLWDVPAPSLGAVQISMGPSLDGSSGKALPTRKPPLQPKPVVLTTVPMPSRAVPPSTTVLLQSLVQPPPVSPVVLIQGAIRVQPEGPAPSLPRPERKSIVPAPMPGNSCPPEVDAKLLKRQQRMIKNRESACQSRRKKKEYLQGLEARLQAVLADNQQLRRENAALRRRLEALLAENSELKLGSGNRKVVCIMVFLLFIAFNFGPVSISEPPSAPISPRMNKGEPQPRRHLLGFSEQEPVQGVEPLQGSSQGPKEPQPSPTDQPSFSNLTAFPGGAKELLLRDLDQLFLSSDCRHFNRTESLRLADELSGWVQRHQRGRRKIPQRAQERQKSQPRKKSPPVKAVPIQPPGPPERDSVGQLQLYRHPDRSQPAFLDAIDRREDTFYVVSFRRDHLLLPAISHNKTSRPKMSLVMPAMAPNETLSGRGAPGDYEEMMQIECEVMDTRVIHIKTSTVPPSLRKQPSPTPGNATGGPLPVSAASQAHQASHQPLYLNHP
Method: as §1, with “to 1.5×10^5 cells/10 cm Dish.” for “to 1.5×10^5 cells/6 cm Dish.”, “plasmid of CREBL1 or ATF6 was transfected” for “plasmid of HNF-4α was transfected”, “combination with CREBL1 expression plasmid or ATF6 expression plasmid” for “combination with HNF-4α expression plasmid”, “co-expressed with CREBL1 or ATF6 were added” for “co-expressed with HNF-4α were added”
as §2

[4] = test system: casein; assay: Casein zymography and protease assay with casein sodium; type: biochemical; details: HtrA2 types expressed in a cultured cell
Method: Determination of the activity of mature HtrA2 and mature HtrA2 (S306A) was carried out with casein zymography and with a protease assay with casein sodium. Casein zymography was carried out according to the protocol (Invitrogen). More concretely, mature HtrA2 and mature HtrA2 (S306A) were mixed under non-reductive condition with equivalent volume of 2×SDS sample buffer, left to stand at room temperature for 10 min, followed by separation with 4-16% zymogram (Blue casein) gel (Zymogram Gel, Invitrogen). After completion of electrophoresis, they were renatured with 2.5% Triton X-100, and then subjected to a degradation reaction of casein in the developing buffer at 37= C. for overnight.
Meanwhile, a protease assay using casein sodium as an substrate was carried out in such that mature HtrA2 or mature HtrA2 (S306A) was mixed with casein sodium in a reaction buffer (150 mM NaCl, 50 mM Tris-HCl (pH 7.5)) so as to the concentration of the former might become 200 μg/ml and the concentration of the latter might become 400 μg/ml, and incubated at 37° C. for reactions. A portion of the reaction solution was sampled at three hours and overnight after initiation of the reaction, mixed with equivalent volume of 2×SDS sample buffer followed by boiling, and then subjected to SDS-PAGE. After that, the degradation of casein sodium was detected by Coomassie Brilliant Blue (CBB) staining.
The enzyme activity of the various types of HtrA2 each of which was expressed in a cultured cell was determined by the protease assay using casein sodium as a substrate (see Example 2).

B1: mature HtrA2 (GVPS): SEQ ID NO: 10; substitution of alanine among the N-terminal four residues of mature HtrA2 with glycine (protein)
chain: MGVPSPPPASPRSQYNFIADVVEKTAPAVVYIEILDRHPFLGREVPISNGSGFVVAADGLIVTNAHVVADRRRVRVRLLSGDTYEAVVTAVDPVADIATLRIQTKEPLPTLPLGRSADVRQGEFVVAMGSPFALQNTITSGIVSSAQRPARDLGLPQTNVEYIQTDAAIDFGNSGGPLVNLDGEVIGVNTMKVTAGISFAIPSDRLREFLHRGEKKNSSSGISGSQRRYIGVMMLTLSPSILAELQLREPSFPDVQHGVLIHKVILGSPAHRAGLRPGDVILAIGEQMVQNAEDVYEAVRTQSQLAVQIRRGRETLTLYVTPEVTE
modifications: Polypeptide consisting of the same amino acid sequence of SEQ ID NO4 wherein the 2nd amino acid residue is substituted by Gly; mature HtrA2(GVPS)
notes: substitution of alanine among the N-terminal four residues of mature HtrA2 with glycine
[1]
  degradation of HNF-4α in cells (band by western blotting): the band of HNF-4α was reduced significantly
[2]
  degradation of ATF6 in cells (band by western blotting): the band of ATF6 was reduced significantly
[3]
  degradation of CREBL1 in cells (band by western blotting): the band of CREBL1 was reduced significantly
[4]
  protease activity using casein sodium as a substrate: active type having protease activity

B2: mature HtrA2 (ΔAVPS): SEQ ID NO: 8; lacks the N-terminal four amino acid residues (AVPS) of mature HtrA2 (protein)
chain: MPPPASPRSQYNFIADVVEKTAPAVVYIEILDRHPFLGREVPISNGSGFVVAADGLIVTNAHVVADRRRVRVRLLSGDTYEAVVTAVDPVADIATLRIQTKEPLPTLPLGRSADVRQGEFVVAMGSPFALQNTITSGIVSSAQRPARDLGLPQTNVEYIQTDAAIDFGNSGGPLVNLDGEVIGVNTMKVTAGISFAIPSDRLREFLHRGEKKNSSSGISGSQRRYIGVMMLTLSPSILAELQLREPSFPDVQHGVLIHKVILGSPAHRAGLRPGDVILAIGEQMVQNAEDVYEAVRTQSQLAVQIRRGRETLTLYVTPEVTE
modifications: Polypeptide consisting of the same amino acid sequence of SEQ ID NO4 wherein the amino acid residues from the 2nd to the 5th are deleted; mature HtrA2(delta AVPS)
[1]
  degradation of HNF-4α in cells (band by western blotting): the band of HNF-4α was reduced significantly
[2]
  degradation of ATF6 in cells (band by western blotting): the band of ATF6 was reduced significantly
[3]
  degradation of CREBL1 in cells (band by western blotting): the band of CREBL1 was reduced significantly
[4]
  protease activity using casein sodium as a substrate: active type having protease activity

B3: mature HtrA2 (S306A, ΔAVPS): SEQ ID NO: 12; mature HtrA2 (S306A) lacking the N-terminal four amino acid residues (AVPS) (protein)
chain: B2 chain with S170A
modifications: Polypeptide consisting of the same amino acid sequence of SEQ ID NO6 wherein the amino acid residues from the 2nd to the 5th are deleted; mature HtrA2(S306A, delta AVPS)
[1]
  degradation of HNF-4α in cells (band by western blotting): the reduction of the band of HNF-4α was not observed
[2]
  degradation of ATF6 in cells (band by western blotting): the reduction of the band of ATF6 was not observed
[3]
  degradation of CREBL1 in cells (band by western blotting): the reduction of the band of CREBL1 was not observed
[4]
  protease activity using casein sodium as a substrate: inactive type without exhibiting protease activity
